Assay results taken from patent US8198236B2, “Methods and compositions for the treatment of cancer” (Washington University, priority 2007, dated 2012).

System: Wnt signaling
Assay: TCF/LEF-luc reporter assay in Wnt-3A-treated HEK293 cells
Format: cell-based
Settings: Wnt3A conditioned medium plus 500 nM, 16 hours at 37° C.
Procedure: HEK293 cells were plated into six-well plates. For each well, 0.1 μg of the TOP-FLASHTCF luciferase construct (Upstate Biotechnology) was cotransfected with 0.8 μg Mesd-expressing vector, 0.8 μg Mesd mutant-expressing vector, or empty vector. A β-galactosidase-expressing vector (Promega, Madison, Wis.) was included as an internal control for transfection efficiency. After 48 hours, cells were lysed and both luciferase and β-galactosidase activities were determined with enzyme assay kits (Promega). The luciferase activity was determined with a luminometer using the Dual Luciferase Assay system (Promega). Luciferase activity was normalized to the activity of the β-galactosidase.
In these experiments, transfected cells were treated without Wnt-3A or with Wnt-3A plus the indicated inhibitors (Mesd and/or Dkk1) for 16 hours at 37° C. Wnt signaling was measured by quantifying the luciferase activity using a live cell imaging system.

B1: Mesd: Recombinant full-length mouse Mesd expressed in E. coli, N-terminal polyhistidine tail, lacking the signal peptide (protein)
chain: ADTPGEATPPPRKKKDIRDYNDADMARLLEQWEKDDDIEEGDLPEHKRPSAPIDFSKLDPGKPESILKMTKKGKTLMMFVTVSGNPTEKETEEITSLWQGSLFNANYDVQRFIVGSDRAIFMLRDGSYAWEIKDFLVSQDRCAEVTLEGQMYPGKGGGSKEKNKTKPEKAKKKEGDRKPRASKEDNRAGSRREDL
modifications: left off: small tags and cut ends
notes: Recombinant full-length mouse Mesd expressed in E. coli, N-terminal polyhistidine tail, lacking the signal peptide
  Inhibition of Wnt signaling (luciferase activity): moderately inhibit
